Data reported in doi:10.1101/2021.03.01.433494 (bioRxiv, 2021).

Assays:
[1] = target: T1, M1 protein on the surface of Streptococcus pyogenes strain SF370 (Streptococcus pyogenes SF370 (emm1), UniProt Q99XV0, strain); test: flow cytometry on cells
[2] = target: T1, M1 protein on the surface of …; test: far-Western, overlay or dot blot

Binder | binding result [1] | binding result [2]
Ab49 (human monoclonal anti-M protein IgG) (antibody, V domains shown) VH: EVQLVESGGGLVQPGGSLRLSCAASGFTVSINYMSWVRQAPGKGLQWVSVIYSGGSTYYADSVKGRFTISRDNSKNTLYLQMNSLRAEDTAMYYCVRDSRFWGIFDYWGQGTLVTVSS VL: EIVLTQSPATLSLSPGERATLSCRASQSVSSYLAWYQRKPGQAPRLLIYDASNRATGIPARFSGSGSGTDFTLTISSLEPEDFAVYYCQQRSNWPPTFGQGTKVEIK | binds | 
Ab49 single Fab (IgdE-cleaved Ab49) (Fab, V domains shown) VH: EVQLVESGGGLVQPGGSLRLSCAASGFTVSINYMSWVRQAPGKGLQWVSVIYSGGSTYYADSVKGRFTISRDNSKNTLYLQMNSLRAEDTAMYYCVRDSRFWGIFDYWGQGTLVTVSS VL: EIVLTQSPATLSLSPGERATLSCRASQSVSSYLAWYQRKPGQAPRLLIYDASNRATGIPARFSGSGSGTDFTLTISSLEPEDFAVYYCQQRSNWPPTFGQGTKVEIK | binds | 
Ab32 (human monoclonal anti-M protein IgG) (antibody, V domains shown) VH: EVQLVESGGGLVRPGGSLRLSCVASGFMFNEYYMSWIRQAPGKGLEWISFISNAGTYTNYAESVKGRFTISRDNAKDSLYLEMNSLRGEDTAVYYCARQGFDTRGEDAFEIWGQGTMVTVSS VL: EIVLTQSPATLSLSPGERATLSCRASQPLSGYLAWYQQKPGQAPRLLIYNASKRATGIPARFTGSGSGTDFTLTISSLESEDFAVYYCQQRSGWPSIFTFGPGTKVDIK |  | binds
